For assay [1], the target named is T1, human CD47, full length, on transfected cells (human, UniProt Q08722 19-323).
T1 construct: whole, on cells; also called CHOK1-hCD47
Briefly: FACS CHOK1-hCD47; Ab 0 nM (background).
Description: (§1) The CHOK1-hCD47 stable cell lines and CHOK1-cCD47 stable cell lines were expanded to 90% confluence in a T-75 cell culture flask, the medium was exhausted, washed twice with HBSS buffer (Hanks balanced salt solution) (purchased from Invitrogen), and then treated and collected with enzyme-free cell dissociation solution (Versene solution: purchased from Life technology). The cells were washed twice with HBSS buffer. After counted, the cells were diluted with HBSS to 2×10⁶ cells per ml, added with 1% goat serum blocking solution, wherein the percentage was the mass percantage, incubated on ice for 30 minutes, and then washed twice with HBSS by centrifugation. […] The plate was washed 3 times with FACS buffer by centrifugation, added with 100 μl fixative solution [4% (v/v) Paraformaldehyde] per well to suspend the cells. 10 minutes later, it was washed twice with FACS buffer by centrifugation. The cells were suspended with 100 microliters of FACS buffer, FACS (FACS Calibur, purchased from BD) was used for detection and the results were analyzed.

Assay [2] has as its target T2, biotin-labeled CD47 extracellular domain protein (CD47-ECD) (UniProt Q08722 19-139, limits assumed, biotin-labeled (sites not given)).
T2 construct: extracellular domain; also called CD47 protein
Put plainly: blocking ELISA, biotin-CD47-ECD on coated SIRPα-hFc; Ab 8 nM. For orientation: In an ELISA, binding on a coated surface is turned into a signal by an enzyme label.

Assay [3] concerns the target T3, His-tagged CD47 recombinant protein, CD47-His (human, UniProt Q08722 19-141, limits assumed).
T3 construct: it is not restated for CD47-His; also called human CD47-His protein; antigen CD47-His; not shown: His tag
Put plainly: ELISA on coated CD47-His; Ab 13.333 nM.

Assay [4] has as its target T2, biotin-labeled CD47 extracellular …. Briefly: blocking ELISA, biotin-CD47-ECD on coated SIRPα-hFc; Ab 40 nM.
The target in assay [5] is T3, His-tagged CD47 recombinant protein, …. Briefly: ELISA on coated CD47-His; Ab 0.004 nM.
Description: (§2) The plate was sealed with plastic film and incubated at 4° C. overnight. The plate was washed twice with plate washing solution [PBS+0.01% (v/v) Tween20] the next day, and blocking solution [PBS+0.01% (v/v) Tween20 +1% (w/w) BSA] was added to block it at room temperature for 2 hours. […] After incubation at 37° C. for 2 hours, the plates were washed three times with plate washing solution [PBS+0.01% (v/v) Tween 20]. HRP (horseradish peroxidase) labeled secondary antibody (purchased from Sigma) was added, incubated at 37° C. for 2 hours, and then washed three times with plate washing solution [PBS+0.01% (v/v) Tween 20]. 1000 of TMB substrate was added to each well. After incubated at room temperature for 30 minutes, the plate was added with 100 μl of stop solution (1.0N HCl) to each well.
The target of assay [6] is T2, biotin-labeled CD47 extracellular …. Briefly: blocking ELISA, biotin-CD47-ECD on coated SIRPα-hFc; Ab 200 nM.
Description: (§3) The plate was sealed with plastic film and incubated at 4° C. overnight. The plate was washed twice with plate washing solution [PBS+0.01% (v/v) Tween20] on the next day, and blocking solution [PBS+0.01% (v/v) Tween20 +1% (w/w) BSA] was added to block it at room temperature for 2 hours. […] After incubation at 37° C. for 2 hours, the plate was washed three times with the plate washing solution [PBS+0.01% (v/v) Tween 20]. HRP (horseradish peroxidase) labeled avidin diluent (purchased from Sigma) was added as 100 microliters per well, and after the plate was incubated for 2 hours at 37° C., it was washed 3 times with washing solution [PBS+0.01% (v/v) Tween 20]. 100 μl of TMB substrate was added to each well. After incubated at room temperature for 30 minutes, the plate was added with 100 μl of stop solution (1.0N HCl) to each well.
Assay [7] deals with T1, human CD47, full length, on transfected …. Put plainly: FACS CHOK1-hCD47; Ab 8 nM.
The target in assay [8] is T3, His-tagged CD47 recombinant protein, …. Briefly: ELISA on coated CD47-His; Ab 2.667 nM.
Description: as §2
Assay [9] deals with T4, cynomolgus CD47, on CHOK1-cCD47 stable cell line (cynomolgus).
T4 construct: whole, on cells; check before use; also called CHOK1/cynoCD47; monkey-derived CD47
Put plainly: FACS CHOK1-cCD47; Ab 200 nM.
Description: as §1

The target of assay [10] is T3, His-tagged CD47 recombinant protein, …. Put plainly: ELISA on coated CD47-His; Ab 0.533 nM.
Description: as §2
Assay [11] has as its target T1, human CD47, full length, on transfected …. Put plainly: FACS CHOK1-hCD47; Ab 0.0128 nM.
Description: as §1
Assay [12] has as its target T4, cynomolgus CD47, on CHOK1-cCD47 stable …. Briefly: FACS CHOK1-cCD47; Ab 1.6 nM.
Description: as §1
The target in assay [13] is T3, His-tagged CD47 recombinant protein, …. Briefly: ELISA on coated CD47-His; Ab 0.107 nM.
Description: as §2
The target in assay [14] is T2, biotin-labeled CD47 extracellular …. Put plainly: blocking ELISA, biotin-CD47-ECD on coated SIRPα-hFc; Ab 1.6 nM.
Description: as §3
For assay [15], the target named is T4, cynomolgus CD47, on CHOK1-cCD47 stable …. Put plainly: FACS CHOK1-cCD47; Ab 8 nM.
Description: as §1
The target is the same in assay [16]. Briefly: FACS CHOK1-cCD47; Ab 0 nM (background).
The target of assay [17] is T3, His-tagged CD47 recombinant protein, …. Briefly: ELISA on coated CD47-His; Ab 0 nM (background).
The target in assay [18] is T2, biotin-labeled CD47 extracellular …. Put plainly: blocking ELISA, biotin-CD47-ECD on coated SIRPα-hFc; Ab 0.064 nM.
Description: as §3
In assay [19] the target is T3, His-tagged CD47 recombinant protein, …. Briefly: ELISA on coated CD47-His; Ab 66.667 nM.
The target in assay [20] is T4, cynomolgus CD47, on CHOK1-cCD47 stable …. Briefly: FACS CHOK1-cCD47; Ab 0.0128 nM.
Description: as §1
For assay [21] the target is unchanged. Briefly: FACS CHOK1-cCD47; Ab 0.064 nM.
Assay [22] concerns the target T2, biotin-labeled CD47 extracellular …. Put plainly: blocking ELISA, biotin-CD47-ECD on coated SIRPα-hFc; Ab 0 nM.
Description: as §3
The target of assay [23] is T1, human CD47, full length, on transfected …. Put plainly: FACS CHOK1-hCD47; Ab 200 nM.
Description: as §1
For assay [24] the target is unchanged. Put plainly: FACS CHOK1-hCD47; Ab 0.064 nM.
Description: as §1
Assay [25] deals with T4, cynomolgus CD47, on CHOK1-cCD47 stable …. Put plainly: FACS CHOK1-cCD47; Ab 40 nM.
The target in assay [26] is T1, human CD47, full length, on transfected …. Put plainly: FACS CHOK1-hCD47; Ab 0.32 nM.
Description: as §1
The target of assay [27] is T2, biotin-labeled CD47 extracellular …. Put plainly: blocking ELISA, biotin-CD47-ECD on coated SIRPα-hFc; Ab 0.0128 nM.
For assay [28], the target named is T3, His-tagged CD47 recombinant protein, …. Briefly: ELISA on coated CD47-His; Ab 0.021 nM.
In assay [29] the target is T1, human CD47, full length, on transfected …. Put plainly: FACS CHOK1-hCD47; Ab 40 nM.
Description: as §1
Assay [30] has the same target. Put plainly: FACS CHOK1-hCD47; Ab 1.6 nM.
Description: as §1
The target in assay [31] is T2, biotin-labeled CD47 extracellular …. Briefly: blocking ELISA, biotin-CD47-ECD on coated SIRPα-hFc; Ab 0.32 nM.
Description: as §3
Assay [32] addresses T4, cynomolgus CD47, on CHOK1-cCD47 stable …. Put plainly: FACS CHOK1-cCD47; Ab 0.32 nM.
Description: as §1
Assay [33] shares this target. Briefly: flow cytometry (FACS) on CHOK1-cynoCD47 cells, mean fluorescence intensity.
Description: as §1

Usually EC50 (read off the curve) stands for the concentration at which the effect is half-maximal. A higher EC50 (read off the curve) goes with a need for much substance.

B1: 132D1E5 (antibody, V domains shown)
VH: QVQLQQPGAELVRPGSSVKLSCKASGYTFTNNWMHWVKQRPLQGLEWIGNIDPSDSETHYNQKFKDKATLTVDKSSTTAYIQLSSLTSEDSAVYYCARWRGGGRGAMDYWGQGTSVTVSS
VL: DVQITQSPSYLAASPGETITINCRTSKNISKFLAWYQEKPGKTNKLLIYSGSTLQSGIPSRFSGSGSGTDFTLTISNLEPEDFAMYYCQQHNEYPWTFGRGTKLEIK
notes: Murine hybridoma antibody purified on protein G
B1: the mean fluorescence intensity in assay [1] was determined as 18.1; in assay [7] it was 6310; in [9], 6970; in assay [11], 88.4; in [12], 6060; in assay [15], 8740. For the same molecule, the mean fluorescence intensity in assay [16] stood at 72.5; in assay [20], 224; in assay [21] it was 689; in assay [23], 7100; in [24], 318; in assay [25] it was 5610. Besides, the mean fluorescence intensity in assay [26] came to 1330; in assay [29] it was 8230; in assay [30] it was 3750; in assay [32], 2060. Moreover, the “OD450 nm of CD47 bound to SIRPα” value in [2] came to 0.07; in assay [4] it was 0.08; in [6], 0.08; in [14], 0.16; in assay [18] it was 2.55; in assay [22], 2.89. Besides, the “OD450 nm of CD47 bound to SIRPα” value in assay [27] was 2.92; in [31], 0.79. The OD450 nm was found to be 2.95 in assay [3]; 0.14 in assay [5]; 3.07 in assay [8]; 2.96 in assay [10]; 1.83 in assay [13]; 0.06 in assay [17]. Moreover, the OD450 nm in assay [19] was determined as 2.88; in [28], 0.49.

B2: Hu5F9-G4 (antibody, V domains shown)
VH: QVQLVQSGAEVKKPGASVKVSCKASGYTFTNYNMHWVRQAPGQRLEWMGTIYPGNDDTSYNQKFKDRVTITADTSASTAYMELSSLRSEDTAVYYCARGGYRAMDYWGQGTLVTVSS
VL: DIVMTQSPLSLPVTPGEPASISCRSSQSIVYSNGNTYLGWYLQKPGQSPQLLIYKVSNRFSGVPDRFSGSGSGTDFTLKISRVEAEDVGVYYCFQGSHVPYTFGQGTKLEIKR
For the molecule B2, the “EC50 (read off the curve)” value in assay [33] was roughly 3 nM.

B3: 95E2D10 (antibody, V domains shown)
VH: QIQLQQSGPELVKPGASMKISCKASGYPFTDYYIHWVKQKPGQGLEWIGWIYPGSGNNKYNEKFKGKATLTVDTSPSTVYMQLSSLTSEDTAVYFCARRAGNYFDYWGQGTTLTVSS
VL: NIVMTQSPKSMSRSVGERVTLSCRASENVRTYVFWYQQKPGLSPKLLIYGASNRYIGVPDRFTGSGSATDFTLTISSVQAEDLADYHCGQSYSYPLTFGAGTKLELK
notes: as for B1
With B3, the mean fluorescence intensity in [1] is 23.3; in [7], 12300; in [9], 21200; in [11], 221; in [12], 7990; in [15], 21400. Besides, the mean fluorescence intensity in assay [16] amounted to 76; in [20] it was 223; in assay [21], 734; in [23], 15800; in assay [24] it was 408; in assay [25] it was 17500. The mean fluorescence intensity in [26] was 2490; in assay [29], 17300; in assay [30], 6140; in assay [32], 3040. Moreover, the “OD450 nm of CD47 bound to SIRPα” value in [2] was 0.09; in assay [4], 0.06; in assay [6], 0.06; in assay [14] it was 0.52; in assay [18] it was 2.84; in assay [22] it was 2.94. Besides, the “OD450 nm of CD47 bound to SIRPα” value stood at 2.96 in [27] and 2 in assay [31]. Also, the OD450 nm in assay [3] came to 2.98; in assay [5], 0.17; in assay [8], 3.01; in assay [10] it was 2.96; in [13], 2.07; in [17], 0.05. The OD450 nm was 2.93 in assay [19] and 0.58 in assay [28].
